Blank lines part the entries; values can stand above or below the binder they belong to.
Tests used:
[1] = target: GroEL (untagged, from pET15b, for quantitative binding studies) (E. coli, UniProt P0A6F5 1-548); experiment: other fluorescence titration
[2] = target: GroEL (wild type, recombinant, from pET22b-groL) (E. coli, UniProt P0A6F5 1-548); experiment: SEC
[3] = target: GroEL_(R452A/E461A/S463A/V464A) (E. coli, UniProt P0A6F5 1-548, R452A | E461A | S463A | V464A); experiment: SEC

- Ki [1]: 47 nM
B1: GroES (for quantitative binding studies, His tag removed) (natural protein, E. coli)
chain: MNIRPLHDRVIVKRKEVETKSAGGIVLTGSAAAKSTRGEVLAVGNGRILENGEVKPLDVKVGDIVIFNDGYGVKSEKIDNEEVLIMSESDILAIVEA

- binding result [2]: binds
B2: Citrate synthase (CS) from pig hearts, chemically unfolded (enzyme, UniProt P00889 28-464, looked up)
chain: ASSTNLKDILADLIPKEQARIKTFRQQHGNTVVGQITVDMMYGGMRGMKGLVYETSVLDPDEGIRFRGYSIPECQKMLPKAKGGEEPLPEGLFWLLVTGQIPTEEQVSWLSKEWAKRAALPSHVVTMLDNFPTNLHPMSQLSAAITALNSESNFARAYAEGIHRTKYWELIYEDCMDLIAKLPCVAAKIYRNLYREGSSIGAIDSKLDWSHNFTNMLGYTDAQFTELMRLYLTIHSDHEGGNVSAHTSHLVGSALSDPYLSFAAAMNGLAGPLHGLANQEVLVWLTQLQKEVGKDVSDEKLRDYIWNTLNSGRVVPGYGHAVLRKTDPRYTCQREFALKHLPHDPMFKLVAQLYKIVPNVLLEQGKAKNPWPNVDAHSGVLLQYYGMTEMNYYTVLFGVSRALGVLAQLIWSRALGFPLERPKSMSTDGLIKLVDSK

- binding result [3]: binds
B3: CnoX (wild type, recombinant, from pET22b-cnoX) (natural protein, E. coli)
chain: MSVENIVNINESNLQQVLEQSMTTPVLFYFWSERSQHCLQLTPILESLAAQYNGQFILAKLDCDAEQMIAAQFGLRAIPTVYLFQNGQPVDGFQGPQPEEAIRALLDKVLPREEELKAQQAMQLMQESNYTDALPLLKDAWQLSNQNGEIGLLLAETLIALNRSEDAEAVLKTIPLQDQDTRYQGLVAQIELLKQAADTPEIQQLQQQVAENPEDAALATQLALQLHQVGRNEEALELLFGHLRKDLTAADGQTRKTFQEILAALGTGDALASKYRRQLYALLY

Reference: paper PMC10044410 (Cell, 2023)
